pKd: −log10 of the molar value.
Assays:
[1] = target: HLA-B*07:02; experiment: IEDB peptide-MHC binding, purified MHC/competitive/radioactivity; filed as Kd, often an IC50 or EC50 that approximates it; ≥ and ≤ were set here for values at or beyond the usual limits of such assays
[2] = target: HLA-B*53:01; experiment: as above
[3] = target: HLA-B*35:01; experiment: as above
[4] = target: HLA-B*54:01; experiment: as above
[5] = target: HLA-B*51:01; experiment: as above
[6] = target: HLA-A*02:01; experiment: IEDB peptide-MHC binding, purified MHC/competitive/fluorescence; filed as Kd, often an IC50 or EC50 that approximates it; ≥ and ≤ were set here for values at or beyond the usual limits of such assays
[7] = target: HLA-A*01:01; experiment: as above
[8] = target: HLA-C*03:03; experiment: IEDB peptide-MHC binding, purified MHC/direct/fluorescence; filed as Kd, often an IC50 or EC50 that approximates it; ≥ and ≤ were set here for values at or beyond the usual limits of such assays; conditions: source organism: Escherichia coli F11
[9] = target: HLA-A*68:02; experiment: IEDB peptide-MHC binding, purified MHC/competitive/radioactivity; filed as Kd, often an IC50 or EC50 that approximates it; ≥ and ≤ were set here for values at or beyond the usual limits of such assays
[10] = target: HLA-B*57:01; experiment: as above
[11] = target: HLA-B*58:01; experiment: as above
[12] = target: HLA-A*02:03; experiment: as above; conditions: source organism: Vaccinia virus WR
[13] = target: HLA-A*31:01; experiment: as above; conditions: source organism: Vaccinia virus WR
[14] = target: HLA-A*02:02; experiment: as above; conditions: source organism: Vaccinia virus WR
[15] = target: HLA-A*33:01; experiment: as above; conditions: source organism: Vaccinia virus WR
[16] = target: HLA-A*68:01; experiment: as above; conditions: source organism: Vaccinia virus WR
[17] = target: HLA-A*03:01; experiment: as above; conditions: source organism: Vaccinia virus WR
[18] = target: HLA-A*11:01; experiment: as above; conditions: source organism: Vaccinia virus WR
[19] = target: HLA-A*02:01; experiment: as above; conditions: source organism: Vaccinia virus WR
[20] = target: HLA-A*02:06; experiment: as above; conditions: source organism: Vaccinia virus WR
[21] = target: HLA-A*68:02; experiment: IEDB peptide-MHC binding, purified MHC/competitive/fluorescence; filed as Kd, often an IC50 or EC50 that approximates it; ≥ and ≤ were set here for values at or beyond the usual limits of such assays; conditions: source organism: Burkholderia mallei GB8 horse 4
[22] = target: HLA-C*12:03; experiment: IEDB peptide-MHC binding, purified MHC/direct/fluorescence; filed as Kd, often an IC50 or EC50 that approximates it; ≥ and ≤ were set here for values at or beyond the usual limits of such assays
[23] = target: HLA-C*05:01; experiment: as above; conditions: source organism: Vaccinia virus Copenhagen
[24] = target: HLA-A*69:01; experiment: as above; conditions: source organism: Camelpox virus M-96
[25] = target: HLA-A*02:01; experiment: as above; conditions: source organism: Camelpox virus M-96
[26] = source organism: SARS coronavirus Tor2
[27] = source organism: Escherichia coli F11
[28] = source organism: Vaccinia virus WR
[29] = source organism: Dengue virus 2 Jamaica/1409/1983
[30] = source organism: Dengue virus 1 Brazil/97-11/1997
[31] = source organism: Dengue virus 3 Martinique/1243/1999
[32] = source organism: Vaccinia virus Copenhagen

RPIFEWIEA
pKd [1, 26]: 6.42 | pKd [2, 26]: 6.63 | pKd [3, 26]: 6.53 | pKd [4, 26]: 7.00 | pKd [5, 26]: 6.38

RTDAWSYPV
pKd [6, 27]: 9.10 | pKd [7, 27]: 7.87 | pKd [8]: 5.84

SPETQQMII
pKd [1, 28]: 6.39 | pKd [2, 28]: 7.94 | pKd [3, 28]: 6.07 | pKd [4, 28]: 4.71 | pKd [5, 28]: 6.98

STASSWSY
pKd ([7]; source organism: Influenza A virus (A/swine/Ohio/24366/2007(H1N1))): ≤ 4.70

STSTWVTYGT
pKd [9, 29]: 7.14 | pKd [10, 29]: 6.89 | pKd [11, 29]: 5.95

VASVELPNSL
pKd [10, 30]: 5.34 | pKd [11, 30]: 6.83

VASVNMVSRL
pKd [10, 31]: 5.65 | pKd [11, 31]: 5.98

VLPHLCLDYK
pKd [12]: ≤ 4.15 | pKd [13]: 5.75 | pKd [1, 28]: ≤ 4.16 | pKd [14]: ≤ 4.15 | pKd [2, 28]: ≤ 4.16 | pKd [15]: 4.71 | pKd [3, 28]: ≤ 4.16 | pKd [16]: 5.88 | pKd [17]: 7.58 | pKd [18]: 6.71 | pKd [19]: ≤ 4.16 | pKd [9, 28]: ≤ 4.16 | pKd [4, 28]: ≤ 4.16 | pKd [5, 28]: ≤ 4.16 | pKd [20]: ≤ 4.69

VPHSVFIASA
pKd [1, 28]: 6.28 | pKd [2, 28]: ≤ 4.16 | pKd [3, 28]: 5.07 | pKd [4, 28]: 9.54 | pKd [5, 28]: ≤ 4.16

WAWPFAAVL
pKd [21]: 7.27 | pKd ([22]; source organism: Burkholderia mallei GB8 horse 4): ≥ 9.00

YFDDVTAFL
pKd [23]: 7.85 | pKd [24]: 6.37 | pKd [25]: 8.30

YLDYDTIYV
pKd [6, 32]: 9.40 | pKd [23]: ≥ 9.00

YLYASFCTV
pKd [6, 32]: 8.49 | pKd [22, 32]: 7.47

From the Immune Epitope Database (IEDB)
